Laboratory results reported in paper PMC4557296.
Values belong to the substance of their own block, whether it stands above or below them.

Assays:
[1] = molecular target: H3K9me3 (100%) chromatin array (12 nucleosomes) (human) (UniProt P68431); experiment: smTIRFM (single-molecule total internal reflection fluorescence microscopy); chromatin arrays or mononucleosomes immobilised by biotin-neutravidin on PEG-passivated coverslips; 1 nM Atto532-labelled HP1α or 0.5 nM HP1αcdm in 50 mM HEPES, 130 mM KCl, 10% glycerol, 2 mM trolox, 0.005% tween-20, glucose and oxygen removal system; dwell-time histograms; apparent KD for a nucleosome in an array, calculated from the fast phase
[2] = molecular target: H3K9me3 (100%) chromatin array (12 nucleosomes) (human) (UniProt P68431); experiment: as above; remark: listed apart in the source
[3] = molecular target: Atto532-labelled HP1α (human); experiment: smTIRFM (fluorescence intensities of individual binding events); as a10, in the presence of 1 μM peptide P3
[4] = molecular target: H3K9me3 (100%) chromatin array (12 nucleosomes) (human) (UniProt P68431); experiment: smTIRFM (single-molecule total internal reflection fluorescence microscopy); chromatin arrays or mononucleosomes immobilised by biotin-neutravidin on PEG-passivated coverslips; 1 nM Atto532-labelled HP1α or 0.5 nM HP1αcdm in 50 mM HEPES, 130 mM KCl, 10% glycerol, 2 mM trolox, 0.005% tween-20, glucose and oxygen removal system; dwell-time histograms; apparent KD for a nucleosome in an array, calculated from the fast phase; remark: listed apart in the source
[5] = molecular target: Atto532-labelled HP1α (human); experiment: smTIRFM (fluorescence intensities of individual binding events); 1 nM Atto532-labelled HP1α on immobilised chromatin arrays; share of events with the intensity of a dimer
[6] = molecular target: H3K9me3 (50%) chromatin array (12 nucleosomes) (human) (UniProt P68431); experiment: smTIRFM (single-molecule total internal reflection fluorescence microscopy); chromatin arrays or mononucleosomes immobilised by biotin-neutravidin on PEG-passivated coverslips; 1 nM Atto532-labelled HP1α or 0.5 nM HP1αcdm in 50 mM HEPES, 130 mM KCl, 10% glycerol, 2 mM trolox, 0.005% tween-20, glucose and oxygen removal system; dwell-time histograms; apparent KD for a nucleosome in an array, calculated from the fast phase
[7] = molecular target: H3K9me3 (75%) chromatin array (12 nucleosomes) (human) (UniProt P68431); experiment: as above
[8] = molecular target: H3K9me3 mononucleosome (human) (UniProt P68431); experiment: as above
[9] = molecular target: H3K9me3 (25%) chromatin array (12 nucleosomes) (human) (UniProt P68431); experiment: as above
[10] = molecular target: H3K9me0 (unmodified) chromatin array (12 nucleosomes) (human) (UniProt P68431); experiment: as above
[11] = molecular target: H3K9me3 (100%) chromatin array (12 nucleosomes) (human) (UniProt P68431); experiment: smTIRFM (single-molecule total internal reflection fluorescence microscopy); as a3, with 1000 nM unlabelled HP1α added to 1 nM Atto532-labelled HP1α
[12] = molecular target: H3K9me3 (100%) chromatin array (12 nucleosomes) (human) (UniProt P68431); experiment: smTIRFM (single-molecule total internal reflection fluorescence microscopy); as a3, with 250 nM unlabelled HP1α added to 1 nM Atto532-labelled HP1α
[13] = molecular target: H3K9me3 (100%) chromatin array (12 nucleosomes) (human) (UniProt P68431); experiment: smTIRFM (single-molecule total internal reflection fluorescence microscopy); as a3, with 50 nM unlabelled HP1α added to 1 nM Atto532-labelled HP1α
[14] = molecular target: H3K9me3 (100%) chromatin array (12 nucleosomes) (human) (UniProt P68431); experiment: smTIRFM (single-molecule total internal reflection fluorescence microscopy); as a3, in the presence of 1 μM peptide P3
[15] = molecular target: H3K9me3 (100%) chromatin array (12 nucleosomes) (human) (UniProt P68431); experiment: smTIRFM (single-molecule total internal reflection fluorescence microscopy); as a3, with the mutated peptide P4 added (concentration not given)
[16] = molecular target: HP1α (I163E) (human) (UniProt P45973); experiment: MST; H3K9me3 1–14 peptide serially diluted (0.1–100 μM) and mixed 1:1 with a 300 nM stock of Atto532-labelled HP1α or HP1αcdm; 150 mM NaCl, 50 mM HEPES, 0.05% Tween, 1 mM DTT, pH 7.5; quadratic binding equation
[17] = molecular target: Atto532-labelled HP1α (human); experiment: as above
[18] = molecular target: HP1αcdm (covalently dimerized HP1α, Atto532-labelled) (human) (UniProt P45973); experiment: as above
[19] = molecular target: H3K9me3 (100%) chromatin array (12 nucleosomes) (human) (UniProt P68431); experiment: smTIRFM (single-molecule total internal reflection fluorescence microscopy); chromatin arrays or mononucleosomes immobilised by biotin-neutravidin on PEG-passivated coverslips; 1 nM Atto532-labelled HP1α or 0.5 nM HP1αcdm in 50 mM HEPES, 130 mM KCl, 10% glycerol, 2 mM trolox, 0.005% tween-20, glucose and oxygen removal system; dwell-time histograms; apparent KD for a nucleosome in an array, calculated from the fast phase; remark: listed apart in the source

Sequence of HP1α (W40A) (P45973 whole entry, stated change not applied): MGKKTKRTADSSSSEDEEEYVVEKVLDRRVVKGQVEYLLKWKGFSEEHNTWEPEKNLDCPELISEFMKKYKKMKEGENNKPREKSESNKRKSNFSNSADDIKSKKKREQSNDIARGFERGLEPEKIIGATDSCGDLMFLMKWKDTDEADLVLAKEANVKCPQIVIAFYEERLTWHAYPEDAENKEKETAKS

Substance: Atto532-labelled HP1α (natural protein)
τoff,2 (slow phase of dissociation) [2]: 2.3 s | percent dimeric HP1α [3]: 42% | kon [4]: 3.58e+06 M⁻¹ s⁻¹ | percent of binding events attributed to dimeric protein [5]: 17% | Kd [1]: 1.16 µM | kon [1]: 3.64e+06 M⁻¹ s⁻¹ | λon (apparent association time constant) [1]: 22.9 s | τoff,1 (fast phase of dissociation) [1]: 0.25 s | τoff,2 (slow phase of dissociation) [1]: 2.26 s | Kd [6]: 3.4 µM | kon [6]: 1.73e+06 M⁻¹ s⁻¹ | λon (apparent association time constant) [6]: 48.2 s | τoff,1 (fast phase of dissociation) [6]: 0.17 s | τoff,2 (slow phase of dissociation) [6]: 4.09 s | Kd [7]: 3.23 µM | kon [7]: 1.63e+06 M⁻¹ s⁻¹ | λon (apparent association time constant) [7]: 51 s | τoff,1 (fast phase of dissociation) [7]: 0.19 s | τoff,2 (slow phase of dissociation) [7]: 4.03 s | τoff,1 (fast phase of dissociation) [8]: 0.13 s | τoff,2 (slow phase of dissociation) [8]: 1.18 s | Kd [9]: 6.06 µM | kon [9]: 1.1e+06 M⁻¹ s⁻¹ | λon (apparent association time constant) [9]: 75.8 s | τoff,1 (fast phase of dissociation) [9]: 0.15 s | τoff,2 (slow phase of dissociation) [9]: 4.57 s | τoff,1 (fast phase of dissociation) [10]: 0.08 s | τoff,2 (slow phase of dissociation) [10]: 3.7 s | Kd [11]: 3.11 µM | kon [11]: 2.92e+06 M⁻¹ s⁻¹ | λon (apparent association time constant) [11]: 29.3 s | τoff,1 (fast phase of dissociation) [11]: 0.11 s | τoff,2 (slow phase of dissociation) [11]: 2.75 s | Kd [12]: 3.72 µM | kon [12]: 2.07e+06 M⁻¹ s⁻¹ | λon (apparent association time constant) [12]: 43.3 s | τoff,1 (fast phase of dissociation) [12]: 0.13 s | τoff,2 (slow phase of dissociation) [12]: 3.93 s | Kd [13]: 1.48 µM | kon [13]: 3.55e+06 M⁻¹ s⁻¹ | λon (apparent association time constant) [13]: 23.8 s | τoff,1 (fast phase of dissociation) [13]: 0.19 s | τoff,2 (slow phase of dissociation) [13]: 3.97 s | Kd [14]: 0.38 µM | kon [14]: 7.94e+06 M⁻¹ s⁻¹ | λon (apparent association time constant) [14]: 10.5 s | τoff,1 (fast phase of dissociation) [14]: 0.33 s | τoff,2 (slow phase of dissociation) [14]: 4.8 s | Kd [15]: 0.84 µM | kon [15]: 4.25e+06 M⁻¹ s⁻¹ | λon (apparent association time constant) [15]: 19.6 s | τoff,1 (fast phase of dissociation) [15]: 0.28 s | τoff,2 (slow phase of dissociation) [15]: 4.45 s

Substance: H3K9me3 1–14 peptide (from UniProt P68431 2-15)
Kd [16]: 9.4 µM | Kd [17]: 5.36 µM | Kd [18]: 12.5 µM

Continued, values first:

τoff,1 (fast phase of dissociation) [1]: 0.1 s | τoff,2 (slow phase of dissociation) [1]: 0.56 s
Substance: HP1α (W40A) (from UniProt P45973 1-191) (natural protein)

λon (apparent association time constant) [1]: > 100 s | τoff,1 (fast phase of dissociation) [1]: 0.23 s | τoff,2 (slow phase of dissociation) [1]: 4.11 s
Substance: HP1α (I163E) (from UniProt P45973 1-191) (natural protein)

Kd [19]: 0.14 µM | Kd [1]: 0.13 µM | kon [1]: 2.24e+07 M⁻¹ s⁻¹ | λon (apparent association time constant) [1]: 7.45 s | τoff,1 (fast phase of dissociation) [1]: 0.33 s | τoff,2 (slow phase of dissociation) [1]: 3.4 s
Substance: HP1αcdm (covalently dimerized HP1α, Atto532-labelled) (from UniProt P45973 1-177)
